Target: the molecule itself
Experiment: SEC; MBP-NR2E3 LBD in solution, compared with Bio-rad Protein Standard

B1: MBP-NR2E3 LBD-His6 fusion protein (MBP–NAAAEF linker–NR2E3(217-410)-His6, C275S) (domain or fragment, human, UniProt Q9Y5X4 217-410, looked up)
chain: LDSIHETSARLLFMAVKWAKNLPVFSSLPFRDQVILLEEAWSELFLLGAIQWSLPLDSSPLLAPPEASAAGGAQGRLTLASMETRVLQETISRFRALAVDPTEFACMKALVLFKPETRGLKDPEHVEALQDQSQVMLSQHSKAHHPSQPVRFGKLLLLLPSLRFITAERIELLFFRKTIGNTPMEKLLCDMFKN
notes: Both tags are non-cleavable; Expressed from pETDuet1; also called MBP-NR2E3 fusion protein; apo NR2E3 LBD; source: E. coli BL21 (DE3), purified (Ni-chelating Hi-Trap, Superdex 200 gel filtration); not shown: MBP (joined by the linker NAAAEF), N-terminal, kept; His6, C-terminal, kept
- stoichiometry N: 2

Reference: PMC3771917, “The Crystal Structure of the Orphan Nuclear Receptor NR2E3/PNR Ligand Binding Domain Reveals a Dimeric Auto-Repressed Conformation” (PLoS ONE, 2013)
